Test system: K4 kissing-loop RNA reporter
Assay: apparent KD of K4 kissing-loop reporter; higher = weaker reporter binding
Details: Eterna round: R107
Protocol: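 RNA-MaP round R107: designed RNA switches with theophylline, tryptophan, arginine or FMN aptamers are transcribed on-chip within common flanks. They are titrated with a labelled K4 kissing-loop RNA reporter in RNA-MaP buffer (100 mM Tris pH 7.5, 80 mM KCl, 4 mM MgCl2), without ligand or with the indicated ligand. Median apparent KD per design.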

[1] = input ligand: theophylline 20 uM
[2] = input ligand: tryptophan 2.4 mM
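Also: bound reporter read as fluorescence of individual clusters on recovered sequencing chips by microscopy, with normalized cluster intensities fitted with a binding model.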

Row | Sequence | apparent KD of K4 kissing-loop reporter (input ligand: FMN 200 uM) [nM] | apparent KD of K4 kissing-loop reporter (input ligand: arginine 13.2 mM) [nM] | apparent KD of K4 kissing-loop reporter (input ligand: none) [nM] | apparent KD of K4 kissing-loop reporter [1] [nM] | apparent KD of K4 kissing-loop reporter [2] [nM]
1 | AGAUUCGACACGGCCGCCACUUGUGGUGGAUUAUCCUAUGUCGAACAUGAGUGAUGUUCAUGUACAAGGACCGGGUGUUGAGUCU [KL-XTryp-B6 #analogue] | 476 | 373 | 421 | 438 | 492
2 | AGCGAUGUUUUCUCUAAGAGUGAUGUUUUUCGAGGACCGGUACGGCCGCCACUCGAAUAAAGUGUGUGGUAGUGAGCUGUUGACA [#17 K4 Tryptophan A Exclusion] | 1150 | 606 | 1110 | 648 | 804
3 | AGCUCAGAGUGACUCGAUAAGAGUCACAAACGAGGACCGGUACGGCCGCCACUCGAAACAAAGAGAGUGAUGUUCUCGCUGAGCA [FiskerMod 10 - Jieux - Same State Tryptophan A] | 319 | 121 | 176 | 207 | 713
4 | AGGACUCUUGUGGGUACGCAUCUAGCCGAUACCAGACUUCCAUAUGUCCCUUGGCAGCGGCAGUGAUGUUGUCGUUACGCCAUCA [theeternabot_exclusion_KL_Theo_A_34] | 140 | 133 | 147 | 212 | 131
5 | AGGAGCGUGCGAUGUAAAUCGCACGCUCCACGAGGACCGGUACGGCCGCCACUCGCUCGUGCAGAGUGAUGUUCUGCCGGCGAAU [#2 Same State - Tryptophan A Attempt #24 (HarryS)] | 306 | 202 | 270 | 248 | 260
6 | AGGAUCCGUCGACAAAAGUCGACAUAAACCAAGGAUAUGACGAAAGUCAGAAGGUGGUCAUAAGACCAGUGAUGUUGGUGGAUCC [FmnA 11 #SwitchBubble #K4Late] | 984 | 268 | 467 | 309 | 379
7 | AGGCACGAGCAAGGAUAUUGAGUAGAGUGAUGUUCUGCCUAAGUUGGCUCGUAAGAGCCUUCUUAGCGAGAAGGUGCUCGUGCCU [#2 Same State - FMN A Attempt #27 (HarryS)] | 297 | 513 | 824 | 611 | 665
8 | AGGCGACGCAAAGGAUAUCACGGUUUUCUAGUGAUGUUAGUCAAGACCGACCGAGAAAUCAGUGUUUGAGAAGGUUGAACGUCGC [theeternabot_sameState_KL_FMN_B_46] | 496 | 682 | 1870 | 756 | 970
9 | AGGGACUCUUCGGAGUCCCGGUUAAGGGAUACCAGUGAUGUUGGUCACCCUUGGCAGCCCAGAAACCAAGCCACCAAAGGUGGCA [Omei KL Theo A Exc A v2] | 150 | 127 | 133 | 211 | 121
10 | AGGUAUGUCUGAAGGAGCGACUAAGAAGCAGUGAUGUUGCUAAGUAGUAAGUAGCUACGUAGUCAGGUAGGUCGCAGAUAUACCU [Arg B SS t14] | 322 | 348 | 257 | 349 | 189
11 | AGGUUUUGAUUAGGAUAUGCACUGACGACGAGAAUAUAGUGAUGUUAUAUAAUAGGAAUUAGUAGAGUAGAAGGGAUUGAGGUUU [SSFMNB.W] | 261 | 168 | 277 | 342 | 190
12 | AGUAGGAAACUACAAUCCUCUCUUACUGAAGGAGCGCGUGAAAACGCAGGUAGGUCGCAGGAUUGGAGAGUGAUGUUCUCCUUAA [Ex Arginine A K4 17] | 311 | 331 | 441 | 413 | 320
13 | AGUAUGGCAACAUUGCAAGUAGCCGUACCACGAGGACCGGUACGGCCGCCACUCGAUAACUUGCAGUGAUGUUGCAAGUAAGAAU [(T)''-(K)'-(T)'-(T1)-(T2)-(K1)-(K2)_Design4] | 193 | 206 | 227 | 268 | 199
14 | AGUCUCAAAAGAGGCAGCACUCACGAGGACAAGGAUAUCAUCUCAAUGAGAAGGUGUCCUCGUCCCUAGUGAUGUUAGGGAGUGC [Omei KL FMN A SS E v6] | 205 | 265 | 305 | 682 | 437
15 | AGUGAUAUAUGAGGAUAUGGGUUAAUUAGUGAGUUAUUUUUAGUGUUGUUUGAUUAGUGAUGUUAUUUAGAAGGCGUGAGUGAUG [awwswmjmullin] | 113 | 75 | 67.5 | 130 | 61.7
16 | AGUGAUGUUGAGUUAUCUUAGUGAAGUGAUCGAGGACCGGUACGGCCGCCACUCGAGUGAUGAGUGAGUGAUGUUUGUUUAGGGA [llkmullin] | 695 | 780 | 897 | 765 | 413
17 | AGUGAUGUUUCUUUUAAGAGUGAUGUUUUUCGAGGACCGGUACGGCCGCCACUCGAGUGAUGAGUGCGUCGUUGUGGUGAUUAGU [#13 K4 Tryptophan A Exclusion] | 483 | 281 | 463 | 379 | 229
18 | AGUGGACAUGUCUAGAGUGAUGUUCUGGAUACCAGACACGAAAGUGUCCCUUGGCAGCCGGAGUGAUGUUCUGGAGUUCACUAAA [Omei KL Theo A Exc B v8] | 612 | 296 | 550 | 485 | 436
19 | AGUGGACGUGUCCGGAGUGAUGUUCAGGAUACCAGACACGAAAGUGUCCCUUGGCAGCCGGAGUGAUGUUCCGGCGUUCACUAAA [Omei KL Theo A Exc B v4] | 459 | 248 | 360 | 419 | 321
20 | AGUGUUAGGUUAGAUACCAGCCGUCCGUGGAUAACCCUCGGACCGCCAGUGAUGUUGGCAGGCCCUUGGCAGCUAACAGAACAGA [Beriisa] | 263 | 208 | 250 | 152 | 199
21 | AGUUCCGACGGAAGGAGCGGACAGUAUUGACGGAAAGGUGCAAGUGAUGUUUGCGCUUGUGUCCAGGUAGGUCGCCGUCGGAACA [Arg B SS t13] | 91.3 | 82.4 | 84.7 | 79.3 | 89.4

Row | Sequence | apparent KD of K4 kissing-loop reporter (input ligand: FMN 200 uM) [nM] | apparent KD of K4 kissing-loop reporter (input ligand: arginine 13.2 mM) [nM] | apparent KD of K4 kissing-loop reporter (input ligand: none) [nM] | apparent KD of K4 kissing-loop reporter [1] [nM] | apparent KD of K4 kissing-loop reporter [2] [nM]
22 | AGUUCUUGCCGAAGGAGCGAGGCAGAGUGAUGUUCUGCAAGAGGUCGAAAGACCUCUCUGCCUCAGGUAGGUCGCGGCAUGAACA [Omei KL Arginine B Exc A v3] | 517 | 239 | 483 | 356 | 535
23 | AUACGUUUUUGUGAUACCAGACAUGUGAGUGAUGUUUACAUAUAUAUUUAAUAUUUAGCUGUCCCUUGGCAGCACUGUUUAUUUA [JR_ExcTheophyB_Sub004] | 362 | 382 | 420 | 437 | 301
24 | AUAGGAGUGAUGUUCCUUAGUUUCUCCGAUACCAGUAUGGAAACAUACCCUUGGCAGCGGGAAACCGCAGAUUAGGAAACUAGUC [Theophylline A K4 6] | 208 | 200 | 210 | 210 | 194
25 | AUAUUAACUCAGUGAUGUUGAGUUGACGAAGGAGCGCUAGAGAUAGCAGGUAGGUCGCGUCAAUUUAAUGGAGACUAGCUUUACG [Arg A Ex t4] | 343 | 297 | 365 | 351 | 307
26 | AUAUUUAUUUAGUCACUUUUCAUAUUAUGUCAGGAUAUCGUAUUUUCGAGAAGGGACUCAUGCUAGUGAUGUUAGCUAUUUCUCA [JR_Nu3_ExcFMNA_Sub022] | 104 | 170 | 141 | 162 | 111
27 | AUCAGCCUCAGAAGGAGCGUGAGUUUUAAGAGGCUGGAGUGAUGUUCCAGACAUAACGACUCACAGGUAGGUCGCUGAGACUAGU [Arg B SS t1] | 132 | 99.8 | 121 | 98.5 | 114
28 | AUCAUAUCUAGUCAGCCCAGUGAUGUUGGGCGAGGACCGGUACGGCCGCCACUCGCUUCGUUGCGGUGGCUGGCGUUACGACAAA [Inveusma] | 130 | 142 | 150 | 142 | 137
29 | AUGACAGAAUCGGCCGCCACUCAUUGUCCUGUGGACAUUCUAGGAUUAGUGAUGUUUUUCCCAUCGAGGACCGGGAUACAGAUUG [theeternabot_sameState_KL_Trp_B_6] | 675 | 267 | 467 | 398 | 519
30 | AUGCGCGCGGCGGCCGCCACUCGCAUGAGAGUGAUGUUCUCGCCGUGCCCGUAAGGGCGCGGUGUGAGGACCGGGCCGGGCUGCG [#2 Same State - Tryptophan B Attempt #21 (HarryS)] | 70.8 | 66.3 | 400 | 319 | 131
31 | AUGGGUUUGGGAGGAUAUCCUUCCCACGUCGAAGUACCGUGCUUGAUGGAGUGAUGUUCGAUCAGAGGAGAAGGCCCGGAUUUAU [Same State FMN B GF21] | 754 | 612 | 845 | 806 | 536
32 | AUGGUUGUCGUAGGAUAUGUAGGAUAUUCCUAUAGCAGUGAUGUUGCUAAUAUCAAUGGAAGAAGGACAGAAGGACGAUAACCAC [KL-SSFMN-B3 #analogue #DoubleAptamer] | 113 | 120 | 113 | 118 | 113
33 | AUUAAUAACUGAGGAUAUCGUUUUACUGUAGUGAUGUUACAGAAAAUUCACAUUAUAAUUUCUAUUCGAGAAGGCAGAAUAAUUA [JR_ExcFMNB_Sub014] | 106 | 74.6 | 65.2 | 71.9 | 65.1
34 | AUUAAUUUCAGAGGAUAUCGUGAUUUUGUUUAAUUUAUUCAUUUGUGCAGUGAUGUUGCUAAUAUUCGAGAAGGCUGAUUUAUAA [whbob_Ex_FMNB__2th225] | 161 | 134 | 63.3 | 132 | 53.3
35 | AUUGUCGGAGUCUGUGCUGACUGACGAGCAAAGGAUAUGUUAUUAAACAGAAGGUUGUGCUGCUUAAGUGAUGUUUUUGGAGCUA [theeternabot_sameState_KL_FMN_A_26] | 308 | 190 | 239 | 228 | 216
36 | AUUUAUUACAGAAGGAGCGUGUAUUUAUAAUCAUUUAUCUUAGCGAGUGAUGUUCGCUUUACACAGGUAGGUCGCUGUUUAUUUA [JR_Nu_ExcArginiB_Sub027] | 110 | 128 | 120 | 133 | 90.2
37 | AUUUUUAACUGAGGAUAUCGAAUUUAUGUAGUGAUGUUACUUUAAAUUAAAAUUUUAAUUUCUUAACGAGAAGGCAGAAUAAUUA [JR_SSFMNB_Sub025] | 111 | 194 | 109 | 204 | 85.4
38 | AUUUUUUACAGAAGGAGCGUGUUUUUAUAAUCAUUUAUCUUAGCGAGUGAUGUUCGCUUUACACAGGUAGGUCGCUGUUUAUUUA [JR_Nu_ExcArginiB_Sub028] | 119 | 130 | 121 | 121 | 85.7
39 | CAACCGUAACACGAUACCAGCCUAGAAGCCAGUGAUGUUGGCCUUUUUUCGGAAAUGAAAGGCCCUUGGCAGCGUGGAUGAACUG [Dibibiquus] | 468 | 304 | 380 | 462 | 338
40 | CAACUACCCGGAAGGAGCGCGGGUGUAAAUCAAAGGGCUUGAGUGAUGUUCAAGCGGAACCCGCAGGUAGGUCGCCGGGAAGCCC [Quaneson] | 113 | 114 | 119 | 114 | 122
41 | CAAGGGCAAGUCGAUACCAGAGACACAUACCCGCAGUGAUGUUGCAGGAAACAGUUACUUCUCCCUUGGCAGCGAAUGCGACUUC [theeternabot_sameState_KL_Theo_B_45] | 348 | 313 | 344 | 309 | 332
42 | CACGCCUGUUGUCUGGUAGACAGAUCAGAUACCAGACAUAGUGAUGUCCCUUGGCAGCUGAACAUCCAGUGAUGUUGGAUGCGUU [Theo A SS t11] | 447 | 333 | 446 | 394 | 371

Source: the supplement of paper PMC9170038
